Data on one substance can be found in article PMC4686714.

The target of this experiment is ENPP1-Fc fusion protein (not stated | not stated (human or mouse cDNA cloned)) (UniProt P22413). Nature of the experiment: SEC-MALS; SEC-MALLS/UV/RI, Superose 6 10/30 HR column, PBSplus buffer, 0.3 ml/min; ENPP1-Fc at 100 nM to 1 uM measured at the apex of the eluting peak; three detector approach. A general note: In gel filtration, larger molecules generally elute earlier.

A word on the stoichiometry N: it is a count of units in the complex or per binding partner. The substance “ENPP1-Fc fusion protein (from UniProt P22413 98-925)” returned a stoichiometry N of 2.
